Test results published in patent US20250059294A1 (PURINOMIA BIOTECH, published 2025).
Where “and” joins values, the source holds several entries; their conditions need not be identical. Equal entries are not always repeated. Values belong to the binder of their own block, whether it stands above or below them.

Experiments:
[1] = biological target: T1, human CD39 (ectonucleoside triphosphate diphosphohydrolase-1) (human, UniProt P49961 1-510); test: flow cytometry; HCC1739BL cells
T1 chain: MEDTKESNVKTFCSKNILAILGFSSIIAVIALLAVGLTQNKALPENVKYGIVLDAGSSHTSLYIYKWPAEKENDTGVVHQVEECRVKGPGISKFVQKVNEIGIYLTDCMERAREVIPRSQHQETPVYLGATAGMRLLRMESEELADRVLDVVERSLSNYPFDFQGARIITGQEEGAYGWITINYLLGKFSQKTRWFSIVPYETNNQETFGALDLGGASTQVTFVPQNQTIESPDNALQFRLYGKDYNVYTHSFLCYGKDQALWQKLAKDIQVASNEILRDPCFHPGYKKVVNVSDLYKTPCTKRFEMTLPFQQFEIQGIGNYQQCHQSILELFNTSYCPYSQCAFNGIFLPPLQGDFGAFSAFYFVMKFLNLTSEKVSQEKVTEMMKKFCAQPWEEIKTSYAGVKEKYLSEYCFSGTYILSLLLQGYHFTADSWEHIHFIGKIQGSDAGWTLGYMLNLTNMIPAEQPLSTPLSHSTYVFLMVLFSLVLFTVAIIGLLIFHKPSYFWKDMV

[2] = biological target: T2, human CD39 (ectonucleoside triphosphate diphosphohydrolase-1) (human, UniProt P49961 1-510); test: flow cytometry, serial dilution on CHO-hCD39 cells, anti-human IgG Fc AF488 secondary
T2 construct: whole, on cells; also called hCD39; ENTPD1
T2 sequence (looked up): T1 chain
Protocol: FIG. 10. […] Ig39-21 WT, Ig39-21 AF or NP501-BK (an optimized version of Ig39-21 by production using stably transfected cells) were serially diluted as indicated and incubated with CHO-hCD39 cells for 30 minutes at 4° C. Cells were then stained with secondary antibody (anti-human IgG (Fc specific), Alexa Fluor® 488) for 30 minutes at 4° C. and analyzed by flow cytometry. Human IgG1 isotype control antibody (KLH-hIgG1) was used in parallel.

[3] = biological target: T2, human CD39 (ectonucleoside triphosphate …); test: flow cytometry, serial dilution on HCC1739BL cells, 30 min at 4 °C
Protocol: FIG. 1. Affinity of Ig39-21 measured by flow cytometry using human CD39hi human B lymphoblastoid (HCC1739BL) cells. Our fully human anti-CD39 antibody clone Ig39-21 produced by transient transfection was serially diluted as indicated and incubated with HCC1739BL cells for 30 minutes at 4° C., followed by flow cytometric analysis.

[4] = biological target: T2, human CD39 (ectonucleoside triphosphate …); test: cell-based or functional assay
[5] = biological target: T2, human CD39 (ectonucleoside triphosphate …); test: flow cytometry, serial dilution on HCC1739BL cells, anti-human IgG Fc AF488 secondary
Protocol: FIG. 11. […] Ig39-21 WT, Ig39-21 AF or NP501-BK were serially diluted as indicated and incubated with HCC1739BL cells for 30 minutes at 4° C. Afterwards, cells were stained with secondary antibody (anti-human IgG (Fc specific), Alexa Fluor® 488) for 30 minutes at 4° C. and analyzed by flow cytometry. Human IgG1 isotype control antibody (KLH-hIgG1) was used in parallel.

Kd [1]: 1.1 nM
B1: Human/Rabbit chimeric clone 8D8 (antibody, V domains shown)
VH: QSVEESGGRLVTPGTPLTLTCTVSGFSLSSYAISWVRQAPGKGLEYIAIINSYGTTYYASWAKGRVTISKTSSTVDLKISSPTTEDTATYFCARGDSYGSGVGLGLWGPGTLVTVSS
VL: AYDMTQTPASVEVAVGGTVTIKCQASQNIYSNLAWYQQKPGQRPKLLIYRASSLASGVPSRFSGSGSGTEFTLTISGVQCDDAATYYCQQGFSSNNVDNTFGGGTEVVVK

Kd [2]: 0.52 nM
Kd [3]: 0.412 nM
ADCC Luc-reporter assay (Jurkat hCD16a-158V effector cells), HCC1739BL target cells, EC50 [4]: 0.014 µg/mL
ADCC Luc-reporter assay, HCC1739BL target cells, EC50 [4]: 0.014 µg/mL and 0.02 µg/mL
CDC assay (10% Normal Human Serum), Raji-hCD39hi target cells, EC50 [4]: 0.38 µg/mL
Kd [5]: 0.29 nM
B2: Ig39-21 WT (antibody, human IgG1, kappa, V domains shown)
VH: EVQLVESGGGVVRPGGSLRLSCAASGFTFSSYAMHWVRQAPGKGLEWVAVISYDVSNKYYADSVKGRFTISRDNSKNTLYLQMNSLRAEDTAVYYCARSYYYYYGMDVWGQGTTVTVSS
VL: DVVMTQSPSSLSASVGDRVTITCRASQSISRYLAWYQQKPGQAPRLLIYDASNRATGIPVRFSGSGSGTDFTLTISRLEPEDFAVYYCQQFGRSPRTFGQGTRLEIKR
notes: also called fully human anti-CD39 antibody clone Ig39-21

Kd [2]: 0.51 nM
ADCC Luc-reporter assay, HCC1739BL target cells, EC50 [4]: 0.00086 µg/mL and 0.0008 µg/mL
CDC assay (10% Normal Human Serum), Raji-hCD39hi target cells, EC50 [4]: 0.25 µg/mL
Kd [5]: 0.35 nM
B3: Ig39-21 AF (antibody, human IgG1, kappa, V domains shown)
VH: B2 VH
VL: B2 VL
modifications: afucosylated glycan (produced in presence of fucosylation inhibitor 2-Deoxy-2-fluoro-L-fucose)
notes: also called afucosylated Ig39-21

Kd [2]: 0.48 nM
ADCC Luc-reporter assay, HCC1739BL target cells, EC50 [4]: 0.0017 µg/mL
CDC assay (10% Normal Human Serum), Raji-hCD39hi target cells, EC50 [4]: 0.31 µg/mL
Kd [5]: 0.16 nM
B4: NP501-BK (antibody, V domains shown)
VH: B2 VH
VL: B2 VL
modifications: decreased fucosylation by optimized production process
notes: 'An optimized version of Ig39-21 by production using stably transfected cells' (CHO); also called Optimized Ig39-21

Kd [1]: 2.95 nM
B5: Human/Rabbit chimeric clone 9C10 (antibody, V domains shown)
VH: QSVEESGGRLVTPGTPLTLTCTVSGFSLSSYAMSWVRQAPGKGLEYIGIISSSGSTYYASWAKGRFTISKTSTTVDLKISSPTTEDTATYFCARDRVIYSIGPYYFNLWGPGTLVTVSS
VL: AYDMTQTPSSVSATVGGTVTINCQASEIIYSNLAWYQQKPGQPPKLLIYGASTLASGVPSRFKGSGSGTEYTLTISDLQCDDAATYYCQQSFSSNNVGNIFGGGTEVVVK

ADCC Luc-reporter assay, HCC1739BL target cells, EC50 [4]: 0.022 µg/mL
B6: Human/Rabbit chimeric clone 9B6 (antibody, human IgG1, V domains shown)
VH: QSVKEAGGRLVTPGGSLTLTCTVSGFSLSAYGISWVRQAPGKGLEWIGIIYSSGRTYYANWAKGRFTISKTSSTTVDLKMTSLTTEDTAAYFCARSRAGISSGDGFDSWGPGTLVTVSS
VL: ALVMTQTPSSVSAAVGGTVTINCQASQNIYSNLAWYQQKPGQRPQLLIYRASTLASGVPSRFKGSASGTEYTLTISGVQCDDAATYYCQQGFDSSNIDNTFGGGTEVVVT

Kd [1]: 1.68 nM
B7: Human/Rabbit chimeric clone 8C11 (antibody, V domains shown)
VH: QSVEESGGRLVTPGTHLTLTCTVSGFSLSKSIISWVRQAPGKGLEYIGIIGSSGSTYYANWAKGRFTISKTSSTTVDLRMTSLTPEDTATYFCARGLLYSGNKSWGPGTLVTVSS
VL: AIDMTQTPSSVSAAVGGTVTINCQSSQSVLLNNQLSWFQQKPGQPPKLLIYDASTLESGVPSRFTGSGSGTQFTLTISDLECDDAATYYCLGGYSGNLYAFGGGTEVLVK
